Measurements as given in patent US7074904.

Columns and labels:
[1] = target: full-length murine I-A^d/OVA 323-339 MHC class II fusion complex (pJRS165.1) expressed on NSO cells (mouse; chicken) (UniProt P04228); test: flow cytometry, FITC-conjugated isotype control antibody 1:100 on clone NSO/IA^d/OVA.A4
[2] = target: full-length murine I-A^d/OVA 323-339 MHC class II fusion complex (pJRS165.1) expressed on NSO cells (mouse; chicken) (UniProt P04228); test: flow cytometry, FITC-conjugated isotype control antibody 1:100 on clone NSO/IA^d/OVA.B2
[3] = target: murine class II MHC molecule I-A^d on A20.1-11 cells (mouse) (UniProt P04228); test: flow cytometry, FITC-conjugated isotype control antibody 1:100 on A20.1-11 cells (positive control)
[4] = target: full-length murine I-A^d/OVA 323-339 MHC class II fusion complex (pJRS165.1) expressed on NSO cells (mouse; chicken) (UniProt P04228); test: flow cytometry, FITC-conjugated isotype control antibody 1:100 on clone NSO/IA^d/OVA.B4
[5] = target: I-A^d on NSO parental cells (untransfected negative control, H-2^d background) (mouse) (UniProt P04228); test: flow cytometry, FITC-conjugated isotype control antibody 1:100 on untransfected NSO cells (negative control)
[6] = target: full-length murine I-A^d/OVA 323-339 MHC class II fusion complex (pJRS165.1) expressed on NSO cells (mouse; chicken) (UniProt P04228); test: flow cytometry, FITC-conjugated isotype control antibody 1:100 on clone NSO/IA^d/OVA.B5

peak channel fluorescence [1]: 34 channel
peak channel fluorescence [2]: 14 channel
peak channel fluorescence [3]: 5 channel
peak channel fluorescence [4]: 11 channel
peak channel fluorescence [5]: 5 channel
peak channel fluorescence [6]: 10 channel
Substance: FITC-conjugated anti-IA^k antibody (Pharmingen), isotype matched irrelevant antibody
